Numbering of substitutions follows the chain as printed. *1 amine or outer side, *2 acyl side, *3 side chain or, on linkers, in order; H or OH if unused. Where no end group is shown, it is not given here. Side-chain parts run from the residue outwards. [ ]: non-standard residue; d: D form. The star is where a group is joined. Decanoyl(10-(4-HOOC-PhO)) = O=C(O)c1ccc(OCCCCCCCCCC(=O)*)cc1; αMePhe(2-F) = C[C@](N)(Cc1ccccc1F)C(=O)O; γGlu = O=C(O)[C@H](CCC(=O)[*:2])N[*:1]; C14 diacid = O=C(O)CCCCCCCCCCCCC(=O)*; αMeY = C[C@](N)(Cc1ccc(O)cc1)C(=O)O; αMeL = CC(C)C[C@](C)(N)C(=O)O; Nle = CCCC[C@H](N)C(=O)O; Orn = NCCC[C@H](N)C(=O)O; AEEA = NCCOCCOCC(=O)O; Aib = CC(C)(N)C(=O)O
B1: Example 310 (peptide)
peptide: YXEGTXTSDXSIXLDXIAQXEFIKXLIKGGPSSGAPPPS
modifications: Y-Aib-EGT-αMeF(2F)-TSD-hTyr-SI-αMeL-LD-Orn-IAQ-Aib-EFIK((2-[2-(2-Amino-ethoxy)-ethoxy]-acetyl)2-(γ-Glu)-(10-(4-carboxyphenoxy)decanoyl))-αMeY-LIK((2-[2-(2-Amino-ethoxy)-ethoxy]-acetyl)2-(γ-Glu)-(10-(4-carboxyphenoxy)decanoyl))GGPSSGAPPPS-NH2
B2: Example 311 (peptide)
peptide: B1 peptide with S11X
modifications: Y-Aib-EGT-αMeF(2F)-TSD-4Pal-Aib-I-αMeL-LD-Orn-IAQ-Aib-EFIK(2-[2-(2-Amino-ethoxy)-ethoxy]-acetyl)2-(γ-Glu)-(11-(4-carboxyphenoxy)undecanoyl)-αMeY-LIK((2-[2-(2-Amino-ethoxy)-ethoxy]-acetyl)2-(γ-Glu)-(11-(4-carboxyphenoxy)undecanoyl)GGPSSGAPPPS-NH2)
B3: Example 312 (peptide)
peptide: B1 peptide with X10Y, S11X
modifications: Y-Aib-EGT-αMeF(2F)-TSDY-Aib-I-αMeL-LD-Orn-IAQ-Aib-EFIK(2-[2-(2-Amino-ethoxy)-ethoxy]-acetyl)2-(γ-Glu)-(11-(4-carboxyphenoxy)undecanoyl)-αMeY-LIK((2-[2-(2-Amino-ethoxy)-ethoxy]-acetyl)2-(γ-Glu)-(11-(4-carboxyphenoxy)undecanoyl)GGPSSGAPPPS-NH2)
B4: Example 314 (peptide)
peptide: Y[Aib]EGT[αMePhe(2-F)]TSD[Nle]SI[αMeL]LD[Orn]IAQ[Aib]EFIK([AEEA-AEEA-γGlu-Decanoyl(10-(4-HOOC-PhO))])[αMeY]LIK([AEEA-AEEA-γGlu-Decanoyl(10-(4-HOOC-PhO))])GGPSSGAPPPS-NH2
B5: Example 315 (peptide)
peptide: B1 peptide with S11X, E21X
modifications: Y-Aib-EGT-αMeF(2F)-TSD-4Pal-Aib-I-αMeL-LD-Orn-IAQ-Aib-Orn-FIK((2-[2-(2-Amino-ethoxy)-ethoxy]-acetyl)2-(γ-Glu)-CO-(CH2)12-CO2H)-αMeY-LIK((2-[2-(2-Amino-ethoxy)-ethoxy]-acetyl)2-(γ-Glu)-CO-(CH2)12-CO2H)GGPSSGAPPPS-NH2
B6: Example 316 (peptide)
peptide: B1 peptide with X10Y, S11X, E21X
modifications: Y-Aib-EGT-αMeF(2F)-TSDY-Aib-I-αMeL-LD-Orn-IAQ-Aib-Orn-FIK((2-[2-(2-Amino-ethoxy)-ethoxy]-acetyl)2-(γ-Glu)-CO-(CH2)12-CO2H)-αMeY-LIK((2-[2-(2-Amino-ethoxy)-ethoxy]-acetyl)2-(γ-Glu)-CO-(CH2)12-CO2H)GGPSSGAPPPS-NH2
B7: Example 317 (peptide)
peptide: Y[Aib]EGT[αMePhe(2-F)]TSDV[Aib]I[αMeL]LD[Orn]IAQ[Aib][Orn]FIK([AEEA-AEEA-γGlu-C14 diacid])[αMeY]LIK([AEEA-AEEA-γGlu-C14 diacid])GGPSSGAPPPS-NH2
B8: Example 320 (peptide)
peptide: B1 peptide with I17K, E21K, K24X, K28E
modifications: Y-Aib-EGT-αMeF(2F)-TSD-hTyr-SI-αMeL-LD-Orn-K((2-[2-(2-Amino-ethoxy)-ethoxy]-acetyl)2-(y-Glu)-(10-(4-carboxyphenoxy)decanoyl))AQ-Aib-K((2-[2-(2-Amino-ethoxy)-ethoxy]-acetyl)2-(γ-Glu)-(10-(4-carboxyphenoxy)decanoyl))FI-(D-Glu)-αMeY-LIEGGPSSGAPPPS-NH2
B9: Example 321 (peptide)
peptide: B1 peptide with I17K, E21K, K24X, K28E
modifications: Y-Aib-EGT-αMeF(2F)-TSD-Nle-SI-αMeL-LD-Orn-K((2-[2-(2-Amino-ethoxy)-ethoxy]-acetyl)2-(γ-Glu)-(10-(4-carboxyphenoxy)decanoyl))AQ-Aib-K((2-[2-(2-Amino-ethoxy)-ethoxy]-acetyl)2-(γ-Glu)-(10-(4-carboxyphenoxy)decanoyl))FI-(D-Glu)-αMeY-LIEGGPSSGAPPPS-NH2
B10: Example 323 (peptide)
peptide: B1 peptide with I17K, E21K, K24X, K28E
modifications: Y-Aib-EGT-αMeF(2F)-TSD-hTyr-SI-αMeL-LD-Orn-K((2-[2-(2-Amino-ethoxy)-ethoxy]-acetyl)2-(γ-Glu)-CO-(CH2)10-CH3)AQ-Aib-K((2-[2-(2-Amino-ethoxy)-ethoxy]-acetyl)2-(γ-Glu)-CO-(CH2)10-CH3)FI-(D-Glu)-αMeY-LIEGGPSSGAPPPS-NH2
B11: Example 327 (peptide)
peptide: B1 peptide with I17K, K24X
modifications: Y-Aib-EGT-αMeF(2F)-TSD-hTyr-SI-αMeL-LD-Orn-K((2-[2-(2-Amino-ethoxy)-ethoxy]-acetyl)2-(γ-Glu)-(10-(4-carboxyphenoxy)decanoyl))AQ-Aib-EFI-(D-Glu)-αMeY-LIK((2-[2-(2-Amino-ethoxy)-ethoxy]-acetyl)2-(γ-Glu)-(10-(4-carboxyphenoxy)decanoyl))GGPSSGAPPPS-NH2
B12: Example 328 (peptide)
peptide: B1 peptide with I17K, K24X
modifications: Y-Aib-EGT-αMeF(2F)-TSD-Nle-SI-αMeL-LD-Orn-K((2-[2-(2-Amino-ethoxy)-ethoxy]-acetyl)2-(γ-Glu)-(10-(4-carboxyphenoxy)decanoyl))AQ-Aib-EFI-(D-Glu)-αMeY-LIK((2-[2-(2-Amino-ethoxy)-ethoxy]-acetyl)2-(γ-Glu)-(10-(4-carboxyphenoxy)decanoyl))GGPSSGAPPPS-NH2
B13: Example 332 (peptide)
peptide: B1 peptide with E21K, K24X
modifications: Y-Aib-EGT-αMeF(2F)-TSD-hTyr-SI-αMeL-LD-Orn-IAQ-Aib-K((2-[2-(2-Amino-ethoxy)-ethoxy]-acetyl)2-(γ-Glu)-(10-(4-carboxyphenoxy)decanoyl))FI-(D-Glu)-αMeY-LIK((2-[2-(2-Amino-ethoxy)-ethoxy]-acetyl)2-(γ-Glu)-(10-(4-carboxyphenoxy)decanoyl))GGPSSGAPPPS-NH2
B14: Example 333 (peptide)
peptide: Y[Aib]EGT[αMePhe(2-F)]TSD[Nle]SI[αMeL]LD[Orn]IAQ[Aib]K([AEEA-AEEA-γGlu-Decanoyl(10-(4-HOOC-PhO))])FI[dE][αMeY]LIK([AEEA-AEEA-γGlu-Decanoyl(10-(4-HOOC-PhO))])GGPSSGAPPPS-NH2
modifications: N-terminus assumed
SMILES: CCCC[C@H](NC(=O)[C@H](CC(=O)O)NC(=O)[C@H](CO)NC(=O)[C@@H](NC(=O)[C@](C)(Cc1ccccc1F)NC(=O)[C@@H](NC(=O)CNC(=O)[C@H](CCC(=O)O)NC(=O)C(C)(C)NC(=O)[C@@H](N)Cc1ccc(O)cc1)[C@@H](C)O)[C@@H](C)O)C(=O)N[C@@H](CO)C(=O)N[C@H](C(=O)N[C@@](C)(CC(C)C)C(=O)N[C@@H](CC(C)C)C(=O)N[C@@H](CC(=O)O)C(=O)N[C@@H](CCCN)C(=O)N[C@H](C(=O)N[C@@H](C)C(=O)N[C@@H](CCC(N)=O)C(=O)NC(C)(C)C(=O)N[C@@H](CCCCNC(=O)COCCOCCNC(=O)COCCOCCNC(=O)CC[C@H](NC(=O)CCCCCCCCCOc1ccc(C(=O)O)cc1)C(=O)O)C(=O)N[C@@H](Cc1ccccc1)C(=O)N[C@H](C(=O)N[C@H](CCC(=O)O)C(=O)N[C@@](C)(Cc1ccc(O)cc1)C(=O)N[C@@H](CC(C)C)C(=O)N[C@H](C(=O)N[C@@H](CCCCNC(=O)COCCOCCNC(=O)COCCOCCNC(=O)CC[C@H](NC(=O)CCCCCCCCCOc1ccc(C(=O)O)cc1)C(=O)O)C(=O)NCC(=O)NCC(=O)N1CCC[C@H]1C(=O)N[C@@H](CO)C(=O)N[C@@H](CO)C(=O)NCC(=O)N[C@@H](C)C(=O)N1CCC[C@H]1C(=O)N1CCC[C@H]1C(=O)N1CCC[C@H]1C(=O)N[C@@H](CO)C(N)=O)[C@@H](C)CC)[C@@H](C)CC)[C@@H](C)CC)[C@@H](C)CC
B15: Example 335 (peptide)
peptide: B1 peptide with I17K, K24X
modifications: Y-Aib-EGT-αMeF(2F)-TSD-hTyr-SI-αMeL-LD-Orn-K((2-[2-(2-Amino-ethoxy)-ethoxy]-acetyl)2-(γ-Glu)-CO-(CH2)10-CH3)AQ-Aib-EFI-(D-Glu)-αMeY-LIK((2-[2-(2-Amino-ethoxy)-ethoxy]-acetyl)2-(γ-Glu)-CO-(CH2)10-CH3)GGPSSGAPPPS-NH2

Assays:
Test in all cases: cell-based or functional assay
[1] = target: human GLP-1 receptor (human, UniProt P43220 24-463)
[2] = target: T1, human GIP receptor (human, UniProt P48546 22-466)
T1 sequence (looked up): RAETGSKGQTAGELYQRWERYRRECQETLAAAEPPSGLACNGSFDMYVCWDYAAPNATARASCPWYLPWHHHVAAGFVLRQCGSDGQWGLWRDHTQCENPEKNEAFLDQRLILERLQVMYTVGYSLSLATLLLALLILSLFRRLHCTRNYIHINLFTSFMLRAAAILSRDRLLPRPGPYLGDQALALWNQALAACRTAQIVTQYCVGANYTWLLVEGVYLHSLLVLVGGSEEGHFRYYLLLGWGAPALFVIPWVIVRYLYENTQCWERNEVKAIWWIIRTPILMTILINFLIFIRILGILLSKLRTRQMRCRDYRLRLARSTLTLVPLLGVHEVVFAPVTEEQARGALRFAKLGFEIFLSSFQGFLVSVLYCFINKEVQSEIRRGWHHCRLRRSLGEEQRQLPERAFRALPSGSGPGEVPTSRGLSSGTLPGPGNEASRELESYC

[3] = target: human glucagon receptor (human, UniProt P47871 26-477)

| Binder | cAMP EC50 (1.0% HSA) [1] | cAMP EC50 (1.0% HSA) [2] | cAMP Emax (1.0% HSA) [2] | cAMP EC50 (1.0% HSA) [3] | cAMP Emax (1.0% HSA) [1] |
| --- | --- | --- | --- | --- | --- |
| B1 | 22 nM | 2.4 nM | 83.9% | > 9950 nM | – |
| B2 | 33.8 nM | 2.16 nM | 98.3% | > 9950 nM | – |
| B3 | 50.8 nM | 4.48 nM | 89.5% | > 9950 nM | – |
| B4 | 38.6 nM | 3.51 nM | – | > 9950 nM | – |
| B5 | 5.38 nM | 0.393 nM | 89.2% | > 9950 nM | 93.5% |
| B6 | 19.2 nM | 1.11 nM | – | > 9950 nM | 113% |
| B7 | 29.5 nM | 2.03 nM | 84.4% | > 9950 nM | – |
| B8 | 6.22 nM | 0.338 nM | 84.1% | > 9950 nM | – |
| B9 | 13.9 nM | 0.631 nM | – | > 9950 nM | – |
| B10 | 9.52 nM | 0.694 nM | – | > 9950 nM | – |
| B11 | 13.6 nM | 0.751 nM | – | > 9950 nM | – |
| B12 | 23.3 nM | 0.75 nM | – | > 9950 nM | – |
| B13 | 33.3 nM | 4.59 nM | – | > 9950 nM | 116% |
| B14 | 70.4 nM | 6.74 nM | – | > 9950 nM | – |
| B15 | 12.3 nM | 1.04 nM | – | > 9950 nM | – |

— US20230265151A1, “GIP/GLP1 CO-AGONIST COMPOUNDS” (priority 2020, published 2023)
